Usually Kd stands for the constant that tells how readily two partners part at equilibrium.

Assay [1] concerns the target oAβ42 Aβ42 (Homo sapiens) (UniProt P05067). As to conditions: cited from earlier work.
The target of another assay is C1q (Homo sapiens) (UniProt P02745). Put plainly: ELISA. The note with it: cited from earlier work. (ELISA stands for enzyme-linked immunosorbent assay.)
Another assay addresses TREM2 F74D (human) (UniProt Q9NZC2). Put plainly: BLI; biotinylated TREM2 WT and variants immobilised on SA biosensors; C1q 62.5 – 1000 nM in PBS with 0.1% BSA and 0.005% Tween-20; 1:1 kinetic fits.
The target in another assay is TREM2 L71D (human) (UniProt Q9NZC2). Described as above.
The next assay deals with TREM2 M41D (human) (UniProt Q9NZC2). The description is as above.
Another assay concerns the target TREM2 R47H (human) (UniProt Q9NZC2). The description is as above.
A further assay has as its target TREM2 R62H (human) (UniProt Q9NZC2). Described as above.
The target in assay [2] is TREM2 WT (human) (UniProt Q9NZC2). Described as above.
The target is the same in assay [3]. Put plainly: BLI; sequential competition: biotinylated TREM2 WT on SA biosensors, first ligand or no ligand at one concentration (500 nM apoE2, apoE4, oAβ42 or IL-34; 1000 nM C1q), buffer, then second ligand. In general terms: Biolayer interferometry detects binding as a change in optical thickness at a sensor tip.

Sequence of TREM2 (Q9NZC2 19-174): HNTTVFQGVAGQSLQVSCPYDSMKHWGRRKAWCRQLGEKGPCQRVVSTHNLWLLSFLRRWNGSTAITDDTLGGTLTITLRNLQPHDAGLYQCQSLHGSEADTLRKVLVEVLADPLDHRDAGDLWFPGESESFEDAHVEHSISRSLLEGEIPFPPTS
Sequence of TREM2 WT (human) (Q9NZC2 19-174): as above
Sequence of TREM2 R62H (human) (Q9NZC2 19-174 R62H): as the sequence (Q9NZC2 19-174) above, with R44H counted along it
Sequence of TREM2 F74D (human) (Q9NZC2 19-230 F74D): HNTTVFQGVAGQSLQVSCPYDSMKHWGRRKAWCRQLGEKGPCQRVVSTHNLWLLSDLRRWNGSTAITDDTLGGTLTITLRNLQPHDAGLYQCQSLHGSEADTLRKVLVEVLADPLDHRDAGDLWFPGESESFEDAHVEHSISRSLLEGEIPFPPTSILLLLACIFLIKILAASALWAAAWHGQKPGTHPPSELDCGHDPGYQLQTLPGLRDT
Sequence of C1q (Homo sapiens) (P02745 23-245, chain 1 of 3): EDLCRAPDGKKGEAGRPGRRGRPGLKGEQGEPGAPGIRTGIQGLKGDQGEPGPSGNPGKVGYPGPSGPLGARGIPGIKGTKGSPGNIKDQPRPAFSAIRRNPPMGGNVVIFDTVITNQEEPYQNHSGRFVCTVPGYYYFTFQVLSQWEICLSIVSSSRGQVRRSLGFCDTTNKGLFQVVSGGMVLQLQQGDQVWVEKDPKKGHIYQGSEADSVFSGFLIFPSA
Sequence of C1q (Homo sapiens) (P02746 28-253, chain 2 of 3, further chain): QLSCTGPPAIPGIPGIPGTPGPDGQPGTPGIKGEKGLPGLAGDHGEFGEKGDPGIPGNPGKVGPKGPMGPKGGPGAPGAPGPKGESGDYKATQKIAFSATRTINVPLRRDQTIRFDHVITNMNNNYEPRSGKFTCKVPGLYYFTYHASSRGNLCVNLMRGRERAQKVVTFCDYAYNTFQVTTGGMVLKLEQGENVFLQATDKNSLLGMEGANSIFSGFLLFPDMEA
Sequence of C1q (Homo sapiens) (P02747 29-245, chain 3 of 3, further chain): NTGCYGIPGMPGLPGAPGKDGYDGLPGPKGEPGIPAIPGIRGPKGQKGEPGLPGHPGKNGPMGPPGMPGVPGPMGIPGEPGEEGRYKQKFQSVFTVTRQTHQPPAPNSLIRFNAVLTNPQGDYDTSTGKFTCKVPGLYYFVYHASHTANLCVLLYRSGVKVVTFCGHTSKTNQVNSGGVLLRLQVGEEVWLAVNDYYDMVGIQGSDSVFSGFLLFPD
Sequence of TREM2 L71D (human) (Q9NZC2 19-230 L71D): as the sequence (Q9NZC2 19-230 F74D) above, with L53D, D56F counted along it
Sequence of TREM2 R47H (human) (Q9NZC2 19-174 R47H): as the sequence (Q9NZC2 19-174) above, with R29H counted along it
Sequence of TREM2 M41D (human) (Q9NZC2 19-230 M41D): as the sequence (Q9NZC2 19-230 F74D) above, with M23D, D56F counted along it

Turning to TREM2 (from UniProt Q9NZC2), the Kd in assay [1] is 526 nM; with C1q (Homo sapiens), 7.35 nM.

With complement C1q (complex), the Kd with TREM2 F74D (human) came to 110 nM; with TREM2 L71D (human), 58 nM; with TREM2 M41D (human), 2540 nM; with TREM2 R47H (human) it was 180 nM; in the assay with TREM2 R62H (human) it was 1660 nM; with TREM2 WT (human) [2] it was 650 nM. Further, the percent decrease of apoE2 binding to TREM2 after pre-binding 1000 nM C1q with TREM2 WT (human) [3] was 11.4%.

The values are drawn from article PMC11419269.
